# Data: article PMC9067375, “Biochemical and crystallization analysis of the CENP-SX–DNA complex” (Acta Crystallographica. Section F, Structural Biology …, 2022)
# T1: CENP-S (MHF1), chicken, full-length (Gallus gallus)
# T1 construct: CENP-S (MHF1), Gallus gallus, from cDNA; called full-length CENP-S; source: E. coli One Shot BL21(DE3) pLysS RARE2; prepared according to previous reports
# T1 chain: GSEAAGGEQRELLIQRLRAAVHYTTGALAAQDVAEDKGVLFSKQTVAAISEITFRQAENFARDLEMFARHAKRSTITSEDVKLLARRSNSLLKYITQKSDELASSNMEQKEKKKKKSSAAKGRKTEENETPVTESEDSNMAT
# Target: T1, CENP-S (MHF1), chicken, full-length
# Experiment: SDS-PAGE of the contents of crystals; crystals grown from the FANCM–CENP-SX pentamer (50 µM) with dsDNA in about 30% 1,4-dioxane, 293 K; crystals, solution and film analysed by 15% SDS–PAGE, Coomassie Brilliant Blue
# Settings: both partners purified
binder,measurement,value
"CENP-X (MHF2), chicken (natural protein, Gallus gallus, CENP-X (MHF2), Gallus gallus, from cDNA; source: E. coli One Shot BL21(DE3) pLysS RARE2; prepared according to previous reports) GYEEREGGFRKETVERLLRLHFRDGRTRVNGDALLLMAELLKVFVREAAARAARQAQAEDLEKVDIEHVEKVLPQLLLDFV",binding result,binds
